Results from US20260166139A1 (AKESO BIOPHARMA, published 2026).
Where “and” joins values, the source holds several entries; their conditions need not be identical. Identical values can stand only once.

Assays:
[1] = molecular target: T1, CTLA4 antigen (NCBI Gene ID: 1493) obtained by TEV protease cleavage of CTLA4-mFc (Homo sapiens (Human), UniProt P16410 37-161); assay: BLI (Fortebio), antibody on AR2G sensor, CTLA4 in solution
T1 construct: also called the antigen CTLA4
T1 sequence: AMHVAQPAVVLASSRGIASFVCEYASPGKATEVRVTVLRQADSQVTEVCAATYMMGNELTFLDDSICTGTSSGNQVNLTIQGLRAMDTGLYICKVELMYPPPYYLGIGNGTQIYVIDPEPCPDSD
Procedure: 2. […] After equilibration in PBST, the CTLA4 antigen was added for binding. […] Dissociation occurred in PBST.

[2] = molecular target: T2, CTLA4 antigen on the surface of 293F-CTLA4 host cells (UniProt P16410 36-223, limits assumed); assay: flow cytometry, 293F-CTLA4 cells; antibody 0.1 nM
T2 construct: whole, on cells
T2 sequence (looked up): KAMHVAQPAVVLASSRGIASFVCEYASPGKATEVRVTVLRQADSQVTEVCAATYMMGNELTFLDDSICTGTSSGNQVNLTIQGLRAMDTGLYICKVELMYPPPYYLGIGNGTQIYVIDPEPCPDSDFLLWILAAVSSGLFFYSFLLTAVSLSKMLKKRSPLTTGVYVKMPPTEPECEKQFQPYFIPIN
Procedure: (§1) After addition of 300 μL PBS, the fluorescent signal was detected using the FITC channel on the flow cytometer.

[3] = molecular target: T2, CTLA4 antigen on the surface of …; assay: flow cytometry, 293F-CTLA4 cells
Procedure: as §1

[4] = molecular target: T2, CTLA4 antigen on the surface of …; assay: flow cytometry, 293F-CTLA4 cells; antibody 0.01 nM
Procedure: as §1

human CTLA4 [5] = molecular target: T3, human CTLA4 (human, UniProt P16410 36-161, limits assumed); assay: ELISA on coated CTLA4, source Human
T3 construct: also called human CTLA4 antigen; CTLA4 protein
T3 sequence (looked up): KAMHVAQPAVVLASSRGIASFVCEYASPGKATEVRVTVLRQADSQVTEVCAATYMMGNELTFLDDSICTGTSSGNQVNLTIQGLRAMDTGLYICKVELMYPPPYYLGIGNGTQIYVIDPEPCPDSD
Procedure: (§2) The ELISA plate was coated with CTLA4 at 4° C. over night. […] The enzyme conjugated secondary antibody was added for incubation for 30 min. Then, the absorbance at 450 nm was determined on an ELISA plate reader.

[6] = molecular target: T2, CTLA4 antigen on the surface of …; assay: flow cytometry, 293F-CTLA4 cells; antibody 1 nM
Procedure: as §1

[7] = molecular target: T2, CTLA4 antigen on the surface of …; assay: flow cytometry, 293F-CTLA4 cells; antibody 25 nM
Procedure: as §1

[8] = molecular target: T2, CTLA4 antigen on the surface of …; assay: flow cytometry, 293F-CTLA4 cells; antibody 5 nM
Procedure: as §1

[9] = molecular target: T2, CTLA4 antigen on the surface of …; assay: flow cytometry, 293F-CTLA4 cells; antibody 0.001 nM
Procedure: as §1

monkey CTLA4-hFc [10] = molecular target: T4, monkey CTLA4-hFc (monkey); assay: ELISA on coated CTLA4, source Monkey
T4 construct: also called monkey CTLA4 antigen
Procedure: as §2

[11] = molecular target: T2, CTLA4 antigen on the surface of …; assay: flow cytometry, 293F-CTLA4 cells; antibody 10 nM
Procedure: as §1

monkey CTLA4-hFc [12] = molecular target: T4, monkey CTLA4-hFc; assay: ELISA, coat monkey CTLA4-hFc 0.25 ug/ml; antibody 0 (blank)
Procedure: as §2

CTLA4-mFc [13] = molecular target: T5, CTLA4-mFc; assay: competitive ELISA, B7/1-hFc coated (competitor), CTLA4-mFc added; antibody 0 (no antibody)
T5 construct: also called CTLA4ECD-mFc fusion protein; CTLA4 antigen
Procedure: (§3) After incubation at 37° C. for 40 minutes, the enzyme conjugated secondary antibody was added. After incubation at 37° C. for 30 minutes, the absorbance at 450 nm was detected on an ELISA plate reader.

CTLA4-mFc [14] = molecular target: T5, CTLA4-mFc; assay: competitive ELISA, competitor B7-1
Procedure: as §3
Target sequence in this assay (chain, as listed by the source limits assumed): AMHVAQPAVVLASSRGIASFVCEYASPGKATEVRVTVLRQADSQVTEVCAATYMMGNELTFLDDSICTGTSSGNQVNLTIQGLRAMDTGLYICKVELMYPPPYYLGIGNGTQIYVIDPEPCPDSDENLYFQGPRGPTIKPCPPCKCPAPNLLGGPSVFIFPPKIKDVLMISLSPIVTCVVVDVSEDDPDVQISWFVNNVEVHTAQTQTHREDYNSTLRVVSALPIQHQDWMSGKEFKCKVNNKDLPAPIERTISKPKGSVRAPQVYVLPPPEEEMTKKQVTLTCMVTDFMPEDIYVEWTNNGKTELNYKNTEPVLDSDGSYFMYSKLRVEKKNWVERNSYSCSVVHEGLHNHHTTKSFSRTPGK

CTLA4-mFc [15] = molecular target: T5, CTLA4-mFc; assay: competitive ELISA, competitor B7-2
Procedure: as §3
Target sequence in this assay (chain, as listed by the source limits assumed): as above

CTLA4-mFc [16] = molecular target: T5, CTLA4-mFc; assay: competitive ELISA, B7/1-hFc coated (competitor), CTLA4-mFc added; antibody 5 µg/ml diluted 1:9
Procedure: as §3

CTLA4-mFc [17] = molecular target: T5, CTLA4-mFc; assay: competitive ELISA, CTLA4-mFc coated, competitor B7/2-His; antibody 1 µg/ml diluted 1:3
Procedure: as §3

CTLA4-mFc [18] = molecular target: T5, CTLA4-mFc; assay: competitive ELISA, CTLA4-mFc coated, competitor B7/2-His; antibody 1 µg/ml
Procedure: as §3

CTLA4-mFc [19] = molecular target: T5, CTLA4-mFc; assay: competitive ELISA, CTLA4-mFc coated, competitor B7/2-His; antibody 1 µg/ml diluted 1:81
Procedure: as §3

CTLA4-mFc [20] = molecular target: T5, CTLA4-mFc; assay: competitive ELISA, B7/1-hFc coated (competitor), CTLA4-mFc added; antibody 5 µg/ml
Procedure: as §3

CTLA4-mFc [21] = molecular target: T5, CTLA4-mFc; assay: competitive ELISA, B7/1-hFc coated (competitor), CTLA4-mFc added; antibody 5 µg/ml diluted 1:3
Procedure: as §3

human CTLA4 [22] = molecular target: T3, human CTLA4; assay: ELISA, coat human CTLA4 0.5 ug/ml; antibody 0 (blank)
Procedure: as §2

CTLA4-mFc [23] = molecular target: T5, CTLA4-mFc; assay: competitive ELISA, CTLA4-mFc coated, competitor B7/2-His; antibody 3 µg/ml diluted 1:27
Procedure: as §3

| Binder | Kd [1] | koff [1] | kon [1] | fluorescence intensity [2] | EC50 [3] | fluorescence intensity [4] | fluorescence intensity [6] | fluorescence intensity [7] | fluorescence intensity [8] | fluorescence intensity [9] | fluorescence intensity [11] | EC50 (CTLA4-mFc [14]) | EC50 (CTLA4-mFc [15]) | absorbance at 450 nm (CTLA4-mFc [17]) | absorbance at 450 nm (CTLA4-mFc [18]) | further results |
| --- | --- | --- | --- | --- | --- | --- | --- | --- | --- | --- | --- | --- | --- | --- | --- | --- |
| humanized antibody 8D2H2L2 (antibody, V domains shown, also called 8D2H2L2(20150327); 8D2H2L2(20140422)) VH: EVQLVESGGGLVQPGGSMRLSCAASGFTFSDNWMNWVRQAPGKGLEWLAQIRNKPYNYETYYSASVKGRFTISRDDSKNSVYLQMNSLKTEDTGVYYCTAQFAYWGQGTLVTVSS VL: DIQMTQSPSSLSASVGDRVTITCRTSENIYGGLNWYQRKPGKSPKLLIYGATNLASGVSSRFSGSGSGTDYTLTISSLQPEDVATYYCQNVLRSPFTFGSGTKLEIK | 955 pM | 0.000388 s⁻¹ | 407000 M⁻¹ s⁻¹ | 124 | 4370 pM | 32.5 | 625 | 1130 | 972 | 10.8 | 1160 | – | – | – | – | EC50 (human CTLA4 [5]): 120 pM and 82 pM and 118 pM; EC50 (monkey CTLA4-hFc [10]): 227 pM; absorbance at 450 nm (monkey CTLA4-hFc [12]): 0.048 |
| humanized antibody 8D2H2L17 (antibody, V domains shown) VH: EVQLVESGGGLVQPGGSMRLSCAASGFTFSDNWMNWVRQAPGKGLEWLAQIRNKPYNYETYYSASVKGRFTISRDDSKNSVYLQMNSLKTEDTGVYYCTAQFAYWGQGTLVTVSS VL: DIQMTQSPSSLSASVGDRVTITCRTSENIYGGLNWYQRKPGKSPKLLIYGATNLASGVSSRFSGSGSGTDYTLTISSLQPEDVATYYCQNVLSSRPGFGSGTKLEIK | – | – | – | – | – | – | – | – | – | – | – | 1790 pM | 296 pM | 0.05 | 0.05 | absorbance at 450 nm (CTLA4-mFc [13]): 1.18; absorbance at 450 nm (CTLA4-mFc [16]): 0.08 |
| humanized antibody 8D2H2L15 (antibody, V domains shown) VH: EVQLVESGGGLVQPGGSMRLSCAASGFTFSDNWMNWVRQAPGKGLEWLAQIRNKPYNYETYYSASVKGRFTISRDDSKNSVYLQMNSLKTEDTGVYYCTAQFAYWGQGTLVTVSS VL: DIQMTQSPSSLSASVGDRVTITCRTSENIYGGLNWYQRKPGKSPKLLIYGATNLASGVSSRFSGSGSGTDYTLTISSLQPEDVATYYCQNVLSRHPGFGSGTKLEIK | – | – | – | – | – | – | – | – | – | – | – | 1970 pM | 227 pM | 0.05 | 0.05 | absorbance at 450 nm (CTLA4-mFc [19]): 0.75; absorbance at 450 nm (CTLA4-mFc [20]): 0.07; absorbance at 450 nm (CTLA4-mFc [21]): 0.07 |
| humanized antibody 8D2H1L1 (antibody, V domains shown) VH: EVQLVESGGGLVQPGGSMRLSCAASGFTFSDNWMNWVRQAPGKGLEWLAQIRNKPYNYETYYSDSVKGRFTISRDDSKNSVYLQMNSLKTEDTGVYYCTAQFAYWGQGTLVTVSS VL: DIQMTQSPSSLSASVGDRVTITCRTSENIYGGLNWYQRKQGKSPKLLIYGATNLASGMSSRFSGSGSGTDYTLKISSLHPDDVATYYCQNVLRSPFTFGSGTKLEIK | 608 pM | 0.000207 s⁻¹ | 340000 M⁻¹ s⁻¹ | 21.2 | 5060 pM | 10.8 | 103 | 1170 | 559 | 10.8 | 944 | – | – | – | – | absorbance at 450 nm (human CTLA4 [22]): 0.067 |
| monoclonal antibody 8D2 (antibody, V domains shown, Mouse antibody purified from hybridoma supernatant; also called mAb 8D2; antibody secreted by the CTLA4-8D2 hybridoma cell line LT001) VH: EVKLDETGGGLVQPGRPMKLSCVASGFTFSDNWMNWVRQSPEKGLEWLAQIRNKPYNYETYYSDSVKGRFTISRDDSKSSVYLQMNNLRGEDMGIYYCTAQFAYWGQGTLVTVSA VL: DIQMTQSPASLSASVGETVTITCGTSENIYGGLNWYQRKQGKSPQLLIFGATNLADGMSSRFSGSGSGRQYSLKISSLHPDDVATYYCQNVLRSPFTFGSGTKLEI | – | – | – | – | – | – | – | – | – | – | – | 440 pM | 208 pM | – | – | absorbance at 450 nm (CTLA4-mFc [23]): 0.675 |
